Experimental data taken from publication PMC3960148, “Atypical Response Regulator ChxR from Chlamydia trachomatis Is Structurally Poised for DNA Binding” (PLoS ONE, 2014).
Where a chain is given by its changes, count along the chain named.

B1: full-length ChxR (natural protein, Chlamydia trachomatis, UniProt A0A0H3MDW1 1-227, looked up)
chain: MAGPKHVLLVSEHWDLFFQTKELLNPEEYRCTIGQQYKQELSADLVVCEYSLLPREIRSPKSLEGSFVLVLLDFFDEETSVDLLDRGFWYLIRPITPRILKSAISLFLSQHSLHSVPESIRFGPNVFYVLKLTVETPEGSVHLTPSESGILKRLLINKGQLCLRKHLLEEIKNHAKAIVARNVDVHIASLRKKLGAYGSRIVTLRGVGYLFSDDGDKKFSQQDTKLS
notes: ChxR, atypical OmpR/PhoB subfamily response regulator of Chlamydia trachomatis, full length; The calculated MW of the dimer is ~56 kDa; also called wild-type ChxR; not shown: His-tag (24 residues), N-terminal, kept
B2: full-length ChxR with Ala substitution of Lys192 (natural protein)
chain: B1 chain with K192A
notes: ChxR of Chlamydia trachomatis, full-length protein with an Ala substitution; Made from the same plasmid as m1; also called Lys192 substitution; source: mutation introduced into the full-length ChxR plasmid (QuikChange II XL)
B3: full-length ChxR with Ala substitution of Asn182 (natural protein)
chain: B1 chain with N182A
notes: ChxR of Chlamydia trachomatis, full-length protein with an Ala substitution; Made from the same plasmid as m1; also called Asn182 substitution; source: mutation introduced into the full-length ChxR plasmid (QuikChange II XL)
B4: full-length ChxR with Ala substitution of Arg205 (natural protein)
chain: B1 chain with R205A
notes: ChxR of Chlamydia trachomatis, full-length protein with an Ala substitution; Made from the same plasmid as m1; also called Arg205 substitution; source: mutation introduced into the full-length ChxR plasmid (QuikChange II XL)
B5: ChxR^H186A (natural protein)
chain: B1 chain with H186A
notes: ChxR of Chlamydia trachomatis, full-length protein with an Ala substitution; Made from the same plasmid as m1; also called His186 substitution; source: mutation introduced into the full-length ChxR plasmid (QuikChange II XL)

Experiments:
[1] = test system: ChxR effector domain (ChxREff) (Chlamydia trachomatis); assay: EMSA; settings: EMSA as in ref 17 (buffer, salt, pH, temperature not given); 1 nM IR800-DNA with 50 nM-10 uM ChxREff, triplicate; 44 uM full-length ChxR (wild type, H186A) in …
[2] = target: the molecule itself; assay: SAXS; full-length ChxR in solution at 1.25, 2.5 and 5.0 mg/ml, 20°C, 5% (v/v) glycerol added; curves extrapolated to infinite dilution; mass estimated from the Porod volume
[3] = target: the molecule itself; assay: SEC; proper folding of the full-length ChxR Ala mutants was assessed by size exclusion chromatography; the sentence on homodimers names no method

Molecule | binding result [3] | other results
DR2 site of chxR promoter | – | Kd [1]: 450 nM
B1 | – | stoichiometry N [2]: 2
B2 | binds | –
B3 | binds | –
B4 | binds | –
B5 | binds | –
